Measured values as given in a protein production outcome set (Wang et al. 2014).

Assay: label from the status in PepcDB records

Sequence | protein production
MYLAASADTKPLPDSDDEEDQHTNAVSIPIAVHNMASALLQVEQAIGKRFLKEPYGMKKWDPKQEALKLACDSRLHQWEVSLMESTSFAQVFLHLNILHDCIQWRRSTNKSLCKVCRRGSDPEKMLLCDECNAGTHMFCLKPKLRSVPPGNWYCNDCVKSLGLSNG | failed
MRLLIAGRLFFGLGLALWALGAGPSPARAAGMSLIRDAEIENTIAMIATPLLRAASIGDRAITFRLINDDTINAFATTEMRVFVYTGLFLKTEGPDELKGVIAHEMGHLAGGHLLRMKDEMANASMTALVGMLAGAAAGIASGRGDVGSAVMMGTNQAAMRGFLTFSRTQESSADSFAMRMLDATGQSAAGMLKFFRKLGDQEALITASQDPYVRTHPLTRDRITAVADHVAHSRFSDVPPSPAEVLAYQRAKAKLMAFLKSTGATLAAYPATDRSVAARYARAIAYYRAGDLGRALPLIDGLIAEDPNDPYFEELRGQMLFENQRLREALGSYTKAARLAPTEPLILVSLAHVQVELGDRPLLENALTNLNAALGLDPTNSFAWRQMANASGKLGDEAMAAYYLAEMALSQGDPREALAHAKRAEGRIPKGSPQGLRLQDLIAEAERQKKRQEDRD | failed
MFAEYLDGRMLMQINAGAFLIALLCLRGDRQRTLDRWLFGAAAGVLLLVYYVWRFTDTLPEWRMDFPSLWAHAFFGFESLTIAYTLISIGIMTRTSDHSAEADAGETALRRGREAPPVDIFIATYNEGLDVLEKTIVAALDIDYPNFRVWVLDDTRRDWLREFCDQVGARYVTRPDNAHAKAGNLNNGLRHSAELDGGAPFIMVLDADFAPNRNILLRIVGLFDDPQVGVVQTPQFYYNADPIQYNLRSTECWVDEQRAFFDVMQPSKDAWGTAFCIGTSFVVRREALDRIGGFPIGTVTEDIHLTYKLMPHGYITRWLNERLSVGLSAEGLPEYISQRSRWGLGTIQVALTADGPLRGPGYTLRERLHYVHGLLHWLSRPFTLMLLAGPLLYWYFNVPTLYGEPLQFLAFGVPALLLYWAYSIWITGARAMPIFTEVTQIVAAMAVSATLVSAIFKPFGRPFKVTNKGLDRSKLVVHGKFAAFYGALFVLAAMGLGRAVAADGTASGVVFNIGWTVISMVLYLASLLVCFELPRPRKEERFPHRERARLCIYGSDGLPREFDGVTQDMSCNGIGLISDAAGRVEAGATGAVWLSELGWVTCRVARTQGHLLGIELFPDMAGRHRLIRMLFGEPAHNIAHRGRPRVAIVQLLRRAFTG | failed
MSKELTAKKRAALNRLKTVRGHLDGIVRMLESDAYCVDVMKQISAVQSSLERANRVMLHNHLETCFSTAVLDGHGQAAIEELIDAVKFTPALTGPHARLGGAAVGESATEEPMPDASNM | not failed
MLSFIIKRILWAIPTLFGVSIIVFMMVHLVPGDPALVILGEKANQAAIDALREQFGLNKPLIEQYFFFINNVLHGNFGTSIMTGEPVMHEFWQRFPATVELALIALFMALVLGISVGVLAAIKRYSVFDYSSMTFALAGISMPVFWLGLMLIYIFSVQLGWLPVFGRLSDVYYLDGPTGLYLIDSLIARDYGAFMDTIKHLILPSIVLATVSTAVIARMTRASMAEVSKEDYVRTAKAKGCSSFRVIFVHTLRNALIPVTTIAGLMLAGLLGGSMITETVFSWPGIGKWIVNALNQRDFPIIQSMSLIIAMMYIGANLLVDILYAFIDPRIRLS | failed
MIRNLYNKIKNCKLKIAAIILLIFLIVTGYIYYSRYFYVLRSPQRVKEFILSYGKFGFFAFFVMQMLQVVAFFIPGEIIQIAGGYIFGTFWGTVISLLGITAGSAVAFYLSNKLGRPFVKKISGKQNISFFEKLIKNGEIKYVITLIYLVPGLPKDILAYVCGITDLSLKDFIIYSTIGRFPGIFISAYFGNTITHGNIKMMVIIAVISVVLFGLGVFKGKYLLTKISSIRSKKQK | failed
MERHEEIKKGAWIGILGNTVLAVLKILVGLLTGSYAILADGIDTSTDIFTSLVILLSSRISGKPPDETHPYGHERAETIASKIISFVMFYAGASLLVESVKRLVKQEFSLELTLTAFIVVGISVAGKTFLFLYKLSLGKRLKSSATISDALNMRNDIMISGTVLAGMVAMKTFGWWWLDSLLAIFVSIMILRTSFSVFYEAAYELMDGMKRTELDMYDDIFAVLERFPNVHNPHRVRIRRVGTKYFIEMDIEVDGKMSVKDAHELTVKIRKEMLKRRDDIEDVTIHVEPLGNVEEEGFGLKKGEKK | failed
MAKGTAVEFQPGGGQARDVFSIAAQAASPAADAGTSAAPAQAAPAPAAVASQAQHFGRTAEPAEPTDLWSYFWNGVTRNYFNFAGRARRKEYWGYCLFWTIALLVIVGIGVFADAEMGNFDSAEMPAMTVGLFGLFLLATFLPSLGMIVRRLHDLGLTGWLCLLILIPTFGSLIILVFALIPTQGRENQWGPVPAGVRV | failed
